Measured values reported in ChEMBL document CHEMBL1137897, “Inhibition of lysosomal cysteine proteases by chrysotherapeutic compounds: a possible mechanism for the antiarthritic activity of Au(I)” (Bioorg Med Chem Lett, 2004).

Key:
AURANOFIN [1] = conditions: Paramecium tetraurelia; 300 uM
Description: Michaelis-Menten constant determined against Paramecium tetraurelia cathepsin L at 300 uM

AURANOFIN [2] = conditions: Paramecium tetraurelia; 300 nM
Description: Michaelis-Menten constant determined against Paramecium tetraurelia cathepsin L at 300 nM

AURANOFIN [3] = conditions: Paramecium tetraurelia; 3 uM
Description: Michaelis-Menten constant determined against Paramecium tetraurelia cathepsin L at 3 uM

AURANOFIN [4] = conditions: Paramecium tetraurelia; 30 uM
Description: Michaelis-Menten constant determined against Paramecium tetraurelia cathepsin L at 30 uM

B1: Putative cathepsin L 3 (Paramecium tetraurelia), Q94715 (protein)
chain: MKQFLTAAIVTLLMTAGYYHLQEDDTNDFERWALKNNKFYTESEKLYRMEIYNSNKRMIEEHNQREDVTYQMGENQFMTLSHEEFVDLYLQKSDSSVNIMGASLPEVQLEGLGAVDWRNYTTVKEQGQCASGWAFSVSNSLEAWYAIRGFQKINASTQQIVDCDYNNTGCSGGYNAYAMEYVLRVGLVSSTNYPYVAKNQTCKQSRNGTYFINGYSFVGGSQSNLQYYLNNYPISVGVEASNWQFYRSGLFSNCSSNGTNHYALAVGFDSANNWIVQNSWGTQWGESGNIRLYPQNTCGILNYPYQVY
AURANOFIN [1]
  Km: 49 µM
AURANOFIN [2]
  Km: 27 µM
AURANOFIN [3]
  Km: 32 µM
AURANOFIN [4]
  Km: 47 µM
